Test results taken from US20190352429A1 (published 2019).

Assays:
[1] = biological target: T1, cMET extracellular domain (human, UniProt P08581 25-932); experiment: Octet BLI, protein A biosensors, extracellular domain as antigen
T1 construct: extracellular domain; also called human c-MET
Description: (§1) The affinity of BxM wildtype and MaB40 was analysed using an Octet system with biosensors coated with protein A. As antigens, the extracellular domains of cMET and EGFR were used. Three different concentrations of antibody were tested to determine the affinity.

[2] = biological target: T2, EGFR extracellular domain (human, UniProt P00533 25-645); experiment: as above
T2 construct: extracellular domain; also called human EGFR; epidermal growth factor receptor
Description: as §1

Row | Binder | Kd [1] [nM] | Kd [2] [nM]
1 | BxM wt (B10v5 x hu225M SEED bispecific IgG without interface mutations) (bispecific antibody, By LC-ESI-MS the preparation held only 76% of the correctly paired form (12% + 12% light chain mispaired variants); also called BxM wildtype) heavy 1: not shown light 1: EPVLTQPPSVSVAPGETATIPCGGDSLGSKIVHWYQQRPGQAPLLVVYDDAARPSGIPERFSGSKSGTTATLTISSVEAGDEADYFCQVYDYHSDVEVFGGGTKLTVLGQPKAAPSVTLFPPSSEELQANKATLVCLISDFYPGAVTVAWKADSSPVKAGVETTTPSKQSNNKYAASSYLSLTPEQWKSHKSYSCQVTHEGSTVEKTVAPTECS heavy 2: EVQLVQSGAEVKKPGASVKVSCKASGFSLTNYGVHWMRQAPGQGLEWIGVIWSGGNTDYNTPFTSRVTITSDKSTSTAYMELSSLRSEDTAVYYCARALTYYDYEFAYWGQGTLVTVSSASTKGPSVFPLAPSSKSTSGGTAALGCLVKDYFPEPVTVSWNSGALTSGVHTFPAVLQSSGLYSLSSVVTVPSSSLGTQTYICNVNHKPSNTKVDKKVEPKSCDKTHTCPPCPAPELLGGPSVFLFPPKPKDTLMISRTPEVTCVVVDVSHEDPEVKFNWYVDGVEVHNAKTKPREEQYNSTYRVVSVLTVLHQDWLNGKEYKCKVSNKALPAPIEKTISKAKGQPREPQVYTLPPPSEELALNELVTLTCLVKGFYPSDIAVEWLQGSQELPREKYLTWAPVLDSDGSFFLYSILRVAAEDWKKGDTFSCSVMHEALHNHYTQKSLDRSPGK light 2: DIQMTQSPSSLSASVGDRVTITCRASQSIGTNIHWYQQKPGKAPKLLIKYASESISGVPSRFSGSGYGTDFTLTISSLQPEDVATYYCQQNYNWPTTFGQGTKVEIKRTVAAPSVFIFPPSDEQLKSGTASVVCLLNNFYPREAKVQWKVDNALQSGNSQESVTEQDSKDSTYSLSSTLTLSKADYEKHKVYACEVTHQGLSSPVTKSFNRGEC | 0.35 | 5.3
2 | BxM MaB40 (B10v5 x hu225M SEED bispecific IgG with K26D in CH1 and T18R in CL of hu225M) (bispecific antibody, Only the correctly paired form was detected by LC-ESI-MS; also called mutant BxM MaB40) heavy 1: not shown light 1: EPVLTQPPSVSVAPGETATIPCGGDSLGSKIVHWYQQRPGQAPLLVVYDDAARPSGIPERFSGSKSGTTATLTISSVEAGDEADYFCQVYDYHSDVEVFGGGTKLTVLGQPKAAPSVTLFPPSSEELQANKATLVCLISDFYPGAVTVAWKADSSPVKAGVETTTPSKQSNNKYAASSYLSLTPEQWKSHKSYSCQVTHEGSTVEKTVAPTECS heavy 2: EVQLVQSGAEVKKPGASVKVSCKASGFSLTNYGVHWMRQAPGQGLEWIGVIWSGGNTDYNTPFTSRVTITSDKSTSTAYMELSSLRSEDTAVYYCARALTYYDYEFAYWGQGTLVTVSSASTKGPSVFPLAPSSKSTSGGTAALGCLVDDYFPEPVTVSWNSGALTSGVHTFPAVLQSSGLYSLSSVVTVPSSSLGTQTYICNVNHKPSNTKVDKKVEPKSCDKTHTCPPCPAPELLGGPSVFLFPPKPKDTLMISRTPEVTCVVVDVSHEDPEVKFNWYVDGVEVHNAKTKPREEQYNSTYRVVSVLTVLHQDWLNGKEYKCKVSNKALPAPIEKTISKAKGQPREPQVYTLPPPSEELALNELVTLTCLVKGFYPSDIAVEWLQGSQELPREKYLTWAPVLDSDGSFFLYSILRVAAEDWKKGDTFSCSVMHEALHNHYTQKSLDRSPGK light 2: DIQMTQSPSSLSASVGDRVTITCRASQSIGTNIHWYQQKPGKAPKLLIKYASESISGVPSRFSGSGYGTDFTLTISSLQPEDVATYYCQQNYNWPTTFGQGTKVEIKRTVAAPSVFIFPPSDEQLKSGRASVVCLLNNFYPREAKVQWKVDNALQSGNSQESVTEQDSKDSTYSLSSTLTLSKADYEKHKVYACEVTHQGLSSPVTKSFNRGEC | 0.42 | 2.9
